According to PMC4007430:

T1: CCL22 labeled with Alexa Fluor 647, O00626
T1 chain: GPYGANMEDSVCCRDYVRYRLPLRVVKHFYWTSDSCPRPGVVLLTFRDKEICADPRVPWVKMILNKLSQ


What was measured:
[1] = target: T1, CCL22 labeled with Alexa Fluor 647, …; test: flow cytometry on cells; conditions: chain shown with the change;; parent: est. 47; read off a plot
[2] = target: CCL2 labeled with Alexa Fluor 647, P13500; test: flow cytometry on cells; conditions: read off a plot
[3] = chain shown with the change;, parent: est. 195

CCL2 labeled with Alexa Fluor 647, P13500, sequence (P13500 24-99): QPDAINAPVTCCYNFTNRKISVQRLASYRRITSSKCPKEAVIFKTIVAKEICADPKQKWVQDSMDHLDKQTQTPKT

| Binder | response [1] [MFI] | response [2, 3] [MFI] | other results |
| --- | --- | --- | --- |
| HA-ACKR2 (epitope-tagged human ACKR2, wild type), O00590 YYYDY to FFYDF (first, second and fourth tyrosines of the motif to F) (protein) MAATASPQPLATEDADSENSSFFFYDFLDEVAFMLCRKDAVVSFGKVFLPVFYSLIFVLGLSGNLLLLMVLLRYVPRRRMVEIYLLNLAISNLLFLVTLPFWGISVAWHWVFGSFLCKMVSTLYTINFYSGIFFISCMSLDKYLEIVHAQPYHRLRTRAKSLLLATIVWAVSLAVSIPDMVFVQTHENPKGVWNCHADFGGHGTIWKLFLRFQQNLLGFLLPLLAMIFFYSRIGCVLVRLRPAGQGRALKIAAALVVAFFVLWFPYNLTLFLHTLLDLQVFGNCEVSQHLDYALQVTESIAFLHCCFSPILYAFSSHRFRQYLKAFLAAVLGWHLAPGTAQASLSSCSESSILTAQEEMTGMNDLGERQSENYPNKEDVGNKSA | 18 | – | – |
| HA-ACKR2 (epitope-tagged human ACKR2, wild type), O00590 YYYDY to YYFDY (third tyrosine of the motif to F) (protein) MAATASPQPLATEDADSENSSFYYFDYLDEVAFMLCRKDAVVSFGKVFLPVFYSLIFVLGLSGNLLLLMVLLRYVPRRRMVEIYLLNLAISNLLFLVTLPFWGISVAWHWVFGSFLCKMVSTLYTINFYSGIFFISCMSLDKYLEIVHAQPYHRLRTRAKSLLLATIVWAVSLAVSIPDMVFVQTHENPKGVWNCHADFGGHGTIWKLFLRFQQNLLGFLLPLLAMIFFYSRIGCVLVRLRPAGQGRALKIAAALVVAFFVLWFPYNLTLFLHTLLDLQVFGNCEVSQHLDYALQVTESIAFLHCCFSPILYAFSSHRFRQYLKAFLAAVLGWHLAPGTAQASLSSCSESSILTAQEEMTGMNDLGERQSENYPNKEDVGNKSA | – | 180 | – |
| HA-ACKR2 (epitope-tagged human ACKR2, wild type), O00590 YYYDY to FFFDF (all four tyrosines of the motif to F) (protein) MAATASPQPLATEDADSENSSFFFFDFLDEVAFMLCRKDAVVSFGKVFLPVFYSLIFVLGLSGNLLLLMVLLRYVPRRRMVEIYLLNLAISNLLFLVTLPFWGISVAWHWVFGSFLCKMVSTLYTINFYSGIFFISCMSLDKYLEIVHAQPYHRLRTRAKSLLLATIVWAVSLAVSIPDMVFVQTHENPKGVWNCHADFGGHGTIWKLFLRFQQNLLGFLLPLLAMIFFYSRIGCVLVRLRPAGQGRALKIAAALVVAFFVLWFPYNLTLFLHTLLDLQVFGNCEVSQHLDYALQVTESIAFLHCCFSPILYAFSSHRFRQYLKAFLAAVLGWHLAPGTAQASLSSCSESSILTAQEEMTGMNDLGERQSENYPNKEDVGNKSA | 7.5 | 26 | response ([2]; chain shown with the change, 10 µg/ml Alexa-CCL2, parent: est. 28): 3 MFI; response ([2]; chain shown with the change, 20 µg/ml Alexa-CCL2, parent: est. 37): 3 MFI; response ([2]; chain shown with the change, 30 µg/ml Alexa-CCL2, parent: est. 54): 6 MFI |
| HA-ACKR2 (epitope-tagged human ACKR2, wild type), O00590 YYYDY to YFFDF (second, third and fourth tyrosines of the motif to F) (protein) MAATASPQPLATEDADSENSSFYFFDFLDEVAFMLCRKDAVVSFGKVFLPVFYSLIFVLGLSGNLLLLMVLLRYVPRRRMVEIYLLNLAISNLLFLVTLPFWGISVAWHWVFGSFLCKMVSTLYTINFYSGIFFISCMSLDKYLEIVHAQPYHRLRTRAKSLLLATIVWAVSLAVSIPDMVFVQTHENPKGVWNCHADFGGHGTIWKLFLRFQQNLLGFLLPLLAMIFFYSRIGCVLVRLRPAGQGRALKIAAALVVAFFVLWFPYNLTLFLHTLLDLQVFGNCEVSQHLDYALQVTESIAFLHCCFSPILYAFSSHRFRQYLKAFLAAVLGWHLAPGTAQASLSSCSESSILTAQEEMTGMNDLGERQSENYPNKEDVGNKSA | 22 | – | – |
| HA-ACKR2 (epitope-tagged human ACKR2, wild type), O00590 YYYDY to YFYDY (second tyrosine of the motif to F) (protein) MAATASPQPLATEDADSENSSFYFYDYLDEVAFMLCRKDAVVSFGKVFLPVFYSLIFVLGLSGNLLLLMVLLRYVPRRRMVEIYLLNLAISNLLFLVTLPFWGISVAWHWVFGSFLCKMVSTLYTINFYSGIFFISCMSLDKYLEIVHAQPYHRLRTRAKSLLLATIVWAVSLAVSIPDMVFVQTHENPKGVWNCHADFGGHGTIWKLFLRFQQNLLGFLLPLLAMIFFYSRIGCVLVRLRPAGQGRALKIAAALVVAFFVLWFPYNLTLFLHTLLDLQVFGNCEVSQHLDYALQVTESIAFLHCCFSPILYAFSSHRFRQYLKAFLAAVLGWHLAPGTAQASLSSCSESSILTAQEEMTGMNDLGERQSENYPNKEDVGNKSA | 71 | – | – |
| HA-ACKR2 (epitope-tagged human ACKR2, wild type), O00590 YYYDY to FYFDF (first, third and fourth tyrosines of the motif to F) (protein) MAATASPQPLATEDADSENSSFFYFDFLDEVAFMLCRKDAVVSFGKVFLPVFYSLIFVLGLSGNLLLLMVLLRYVPRRRMVEIYLLNLAISNLLFLVTLPFWGISVAWHWVFGSFLCKMVSTLYTINFYSGIFFISCMSLDKYLEIVHAQPYHRLRTRAKSLLLATIVWAVSLAVSIPDMVFVQTHENPKGVWNCHADFGGHGTIWKLFLRFQQNLLGFLLPLLAMIFFYSRIGCVLVRLRPAGQGRALKIAAALVVAFFVLWFPYNLTLFLHTLLDLQVFGNCEVSQHLDYALQVTESIAFLHCCFSPILYAFSSHRFRQYLKAFLAAVLGWHLAPGTAQASLSSCSESSILTAQEEMTGMNDLGERQSENYPNKEDVGNKSA | 19 | – | – |
| HA-ACKR2 (epitope-tagged human ACKR2, wild type), O00590 YYYDY to FFFDY (first, second and third tyrosines of the motif to F) (protein) MAATASPQPLATEDADSENSSFFFFDYLDEVAFMLCRKDAVVSFGKVFLPVFYSLIFVLGLSGNLLLLMVLLRYVPRRRMVEIYLLNLAISNLLFLVTLPFWGISVAWHWVFGSFLCKMVSTLYTINFYSGIFFISCMSLDKYLEIVHAQPYHRLRTRAKSLLLATIVWAVSLAVSIPDMVFVQTHENPKGVWNCHADFGGHGTIWKLFLRFQQNLLGFLLPLLAMIFFYSRIGCVLVRLRPAGQGRALKIAAALVVAFFVLWFPYNLTLFLHTLLDLQVFGNCEVSQHLDYALQVTESIAFLHCCFSPILYAFSSHRFRQYLKAFLAAVLGWHLAPGTAQASLSSCSESSILTAQEEMTGMNDLGERQSENYPNKEDVGNKSA | 24 | – | – |
| HA-ACKR2 (epitope-tagged human ACKR2, wild type), O00590 YYYDY to FYYDY (first tyrosine of the motif to F) (protein) MAATASPQPLATEDADSENSSFFYYDYLDEVAFMLCRKDAVVSFGKVFLPVFYSLIFVLGLSGNLLLLMVLLRYVPRRRMVEIYLLNLAISNLLFLVTLPFWGISVAWHWVFGSFLCKMVSTLYTINFYSGIFFISCMSLDKYLEIVHAQPYHRLRTRAKSLLLATIVWAVSLAVSIPDMVFVQTHENPKGVWNCHADFGGHGTIWKLFLRFQQNLLGFLLPLLAMIFFYSRIGCVLVRLRPAGQGRALKIAAALVVAFFVLWFPYNLTLFLHTLLDLQVFGNCEVSQHLDYALQVTESIAFLHCCFSPILYAFSSHRFRQYLKAFLAAVLGWHLAPGTAQASLSSCSESSILTAQEEMTGMNDLGERQSENYPNKEDVGNKSA | – | 180 | – |
| HA-ACKR2 (epitope-tagged human ACKR2, wild type), O00590 YYYDY to YYYDF (fourth tyrosine of the motif to F) (protein) MAATASPQPLATEDADSENSSFYYYDFLDEVAFMLCRKDAVVSFGKVFLPVFYSLIFVLGLSGNLLLLMVLLRYVPRRRMVEIYLLNLAISNLLFLVTLPFWGISVAWHWVFGSFLCKMVSTLYTINFYSGIFFISCMSLDKYLEIVHAQPYHRLRTRAKSLLLATIVWAVSLAVSIPDMVFVQTHENPKGVWNCHADFGGHGTIWKLFLRFQQNLLGFLLPLLAMIFFYSRIGCVLVRLRPAGQGRALKIAAALVVAFFVLWFPYNLTLFLHTLLDLQVFGNCEVSQHLDYALQVTESIAFLHCCFSPILYAFSSHRFRQYLKAFLAAVLGWHLAPGTAQASLSSCSESSILTAQEEMTGMNDLGERQSENYPNKEDVGNKSA | – | 180 | – |
